In article PMC12247212 (RSC Chemical Biology, 2025):
Blank lines part the entries; values can stand above or below the binder they belong to.

How the values were obtained:
[1] = molecular target: T1, β2-microglobulin (Homo sapiens (assumed), UniProt P61769); test: BLI; SpyBLI single-cycle kinetics, Octet-K2; SpyTagged nanobody or scFv loaded from crude mammalian cell supernatant (1:1 with PBS + 0.05% Tween-20) onto biotinylated SpyCatcher003 S49C on streptavidin sensors; purified antigen as analyte at five increasing concentrations; 30 °C, 1000 rpm, PBS pH 7.5, 0.05% Tween-20; 1:1 standard model (1:1 partial dissociation model for Nb24); averages of three independent …; settings: one partner purified
T1 construct: β2-microglobulin, recombinant; MW ~12 kDa

[2] = molecular target: T1, β2-microglobulin; test: BLI; SpyBLI single-cycle kinetics, Octet-K2; purified SpyTagged nanobody or scFv loaded at 100 nM onto biotinylated SpyCatcher003 S49C on streptavidin sensors; purified antigen as analyte at five increasing concentrations; 30 °C, 1000 rpm, PBS pH 7.5, 0.05% Tween-20; 1:1 standard model (1:1 partial dissociation model for Nb24); averages of three independent experiments; settings: both partners purified
[3] = molecular target: T1, β2-microglobulin; test: BLI; SpyBLI single-cycle kinetics, Octet-K2; SpyTagged nanobody or scFv loaded from cell-free reaction blend (diluted 100-fold in PBS + 0.05% Tween-20) onto biotinylated SpyCatcher003 S49C on streptavidin sensors; purified antigen as analyte at five increasing concentrations; 30 °C, 1000 rpm, PBS pH 7.5, 0.05% Tween-20; 1:1 standard model (1:1 partial dissociation model for Nb24); averages of three independent …; settings: one partner purified
[4] = molecular target: T2, hen egg-white lysozyme (Gallus gallus, UniProt P00698); test: as above; settings: one partner purified
T2 construct: lysozyme from chicken egg-white, Sigma-Aldrich 62971; also called Lysozyme from chicken egg-white; source: bought: Sigma-Aldrich (62971); further purified by SEC (Superdex 75 Increase)

[5] = molecular target: T3, CD16a-mMBP (Homo sapiens, allotype  …, UniProt P08637); test: BLI; SpyBLI single-cycle kinetics, Octet-K2; SpyTagged nanobody or scFv loaded from crude mammalian cell supernatant (1:1 with PBS + 0.05% Tween-20) onto biotinylated SpyCatcher003 S49C on streptavidin sensors; purified antigen as analyte at five increasing concentrations; 30 °C, 1000 rpm, PBS pH 7.5, 0.05% Tween-20; 1:1 standard model (1:1 partial dissociation model for Nb24); averages of three independent …; settings: one partner purified
T3 construct: monovalent antigen; MW ~63 kDa; also called CD16a (FCGR3A); FcγRIIIa; source: Expi293F, transfected (pcDNA3.4 without SpyTag003), harvested 6 days post-transfection, purified

[6] = molecular target: T3, CD16a-mMBP; test: BLI; SpyBLI single-cycle kinetics, Octet-K2; purified SpyTagged nanobody or scFv loaded at 100 nM onto biotinylated SpyCatcher003 S49C on streptavidin sensors; purified antigen as analyte at five increasing concentrations; 30 °C, 1000 rpm, PBS pH 7.5, 0.05% Tween-20; 1:1 standard model (1:1 partial dissociation model for Nb24); averages of three independent experiments; settings: both partners purified
[7] = molecular target: T3, CD16a-mMBP; test: BLI; SpyBLI single-cycle kinetics, Octet-K2; SpyTagged nanobody or scFv loaded from cell-free reaction blend (diluted 100-fold in PBS + 0.05% Tween-20) onto biotinylated SpyCatcher003 S49C on streptavidin sensors; purified antigen as analyte at five increasing concentrations; 30 °C, 1000 rpm, PBS pH 7.5, 0.05% Tween-20; 1:1 standard model (1:1 partial dissociation model for Nb24); averages of three independent …; settings: one partner purified

T2 sequence (P00698 19-147): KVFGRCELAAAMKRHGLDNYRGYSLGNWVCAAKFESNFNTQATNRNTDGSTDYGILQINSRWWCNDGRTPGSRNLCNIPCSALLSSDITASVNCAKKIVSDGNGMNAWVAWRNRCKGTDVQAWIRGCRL
T3 sequence (P08637 17-254): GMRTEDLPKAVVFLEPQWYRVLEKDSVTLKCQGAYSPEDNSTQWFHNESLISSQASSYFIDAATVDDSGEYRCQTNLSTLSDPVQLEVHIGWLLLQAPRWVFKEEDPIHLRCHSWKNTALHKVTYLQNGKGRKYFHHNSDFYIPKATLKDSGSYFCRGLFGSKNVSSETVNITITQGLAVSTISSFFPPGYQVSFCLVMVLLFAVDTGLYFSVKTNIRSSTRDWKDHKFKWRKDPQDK

B1: Nb24, SpyTagged nanobody (mammalian expression) (VHH)
VHH: QVQLQESGGGSVQAGGSLRLSCAASGYTDSRYCMAWFRQAPGKEREWVARINSGRDITYYADSVKGRFTFSQDNAKNTVYLQMDSLEPEDTATYYCATDIPLRCRDIVAKGGDGFRYWGQGTQVTVSS
notes: nanobody Nb24; (G3S)2 linker between the nanobody and SpyTag003; Covalently captured on biotinylated SpyCatcher003 S49C on streptavidin sensors; also called anti-β2-microglobulin nanobody Nb24; Nb24-SpyTag003; source: Expi293F, transfected (pcDNA3.4); purified (His Mag Sepharose Excel, SEC) or used directly as crude mammalian cell supernatant; not shown: SpyTag003 (after a (G3S)2 linker), …
Kd [1]: 50 nM
koff [1]: 0.0114 s⁻¹
kon [1]: 240000 M⁻¹ s⁻¹
Kd [2]: 49.6 nM
koff [2]: 0.0112 s⁻¹
kon [2]: 230000 M⁻¹ s⁻¹

B2: Nb24, SpyTagged nanobody (cell-free expression) (VHH)
VHH: QVQLQESGGGSVQAGGSLRLSCAASGYTDSRYCMAWFRQAPGKEREWVARINSGRDITYYADSVKGRFTFSQDNAKNTVYLQMDSLEPEDTATYYCATDIPLRCRDIVAKGGDGFRYWGQGTQVTVSS
notes: nanobody Nb24; as the VHH of m1; The cell-free fragment design has an optional His-tag; also called Nb24-SpyTag003; not shown: SpyTag003 (after a (G3S)2 linker), C-terminal, kept
Kd [3]: 63.8 nM
koff [3]: 0.014 s⁻¹
kon [3]: 220000 M⁻¹ s⁻¹

B5: anti-CD16a scFv, SpyTagged (cell-free expression) (scFv, V domains shown)
VH: EVQLVQSGAEVKKPGESLKVSCKASGYTFTSYYMHWVRQAPGQGLEWMGAIEPMYGSTSYAQKFQGRVTMTRDTSTSTVYMELSSLRSEDTAVYYCARGSAYYYDFADYWGQGTLVTVSS
VL: SYVLTQPSSVSVAPGQTATISCGGHNIGSKNVHWYQQRPGQSPVLVIYQDNKRPSGIPERFSGSNSGNTATLTISGTQAMDEADYYCQVWDNYSVLFGGGTKLTVL
notes: as the scFv of m3; The cell-free fragment design has an optional His-tag; not shown: SpyTag003 (after a (G3S)2 linker), C-terminal, kept
Kd [7]: 8.1 nM
koff [7]: 0.0018 s⁻¹
kon [7]: 220000 M⁻¹ s⁻¹

Now from value to binder:

Kd [4]: 0.67 nM
koff [4]: 0.00116 s⁻¹
kon [4]: 1.7e+06 M⁻¹ s⁻¹
B3: cAb-Lys3, SpyTagged nanobody (VHH)
VHH: DVQLQASGGGSVQAGGSLRLSCAASGYTIGPYCMGWFRQAPGKEREGVAAINMGGGITYYADSVKGRFTISQDNAKNTVYLLMNSLEPEDTAIYYCAADSTIYASYYECGHGLSTGGYGYDSWGQGTQVTVSS
notes: nanobody cAb-Lys3; The cell-free fragment design has an optional His-tag; also called Nb cAb-Lys3; not shown: SpyTag003 (after a (G3S)2 linker), C-terminal, kept

Kd [5]: 4.3 nM
koff [5]: 0.00081 s⁻¹
kon [5]: 187000 M⁻¹ s⁻¹
Kd [6]: 6.7 nM
koff [6]: 0.00113 s⁻¹
kon [6]: 171000 M⁻¹ s⁻¹
B4: anti-CD16a scFv, SpyTagged (mammalian expression) (scFv, V domains shown)
VH: EVQLVQSGAEVKKPGESLKVSCKASGYTFTSYYMHWVRQAPGQGLEWMGAIEPMYGSTSYAQKFQGRVTMTRDTSTSTVYMELSSLRSEDTAVYYCARGSAYYYDFADYWGQGTLVTVSS
VL: SYVLTQPSSVSVAPGQTATISCGGHNIGSKNVHWYQQRPGQSPVLVIYQDNKRPSGIPERFSGSNSGNTATLTISGTQAMDEADYYCQVWDNYSVLFGGGTKLTVL
notes: scFv of the FcγRIIIa-targeting arm of RO7297089; (G3S)2 linker between the scFv and SpyTag003; also called FcγRIIIa-targeting arm of the bispecific antibody RO7297089; source: Expi293F, transfected (pcDNA3.4); purified (His Mag Sepharose Excel, SEC) or used directly as crude mammalian cell supernatant; not shown: SpyTag003 (after a (G3S)2 linker), C-terminal, kept
